Values of other authors as cited in paper PMC3433420.
Where two headings read alike, the source gives them in different places.

Columns and labels:
Conditions in all cases: cited from earlier work
VAV3 (Homo sapiens) = VAV3 (Homo sapiens) (UniProt Q9UKW4)
PIK3R3-N (Homo sapiens) [1] = molecular target: PIK3R3-N (Homo sapiens) (UniProt Q92569)
BLK (Homo sapiens) [2] = molecular target: BLK (Homo sapiens) (UniProt P51451)
PLCG1-C (Homo sapiens) = PLCG1-C (Homo sapiens) (UniProt P19174)
SHC2-PTB (Homo sapiens) = SHC2-PTB (Homo sapiens) (UniProt P98077)
VAV2 (Homo sapiens) = VAV2 (Homo sapiens) (UniProt P52735)
VAV1 (Homo sapiens) = VAV1 (Homo sapiens) (UniProt P15498)
LYN (Homo sapiens) = LYN (Homo sapiens) (UniProt P07948)
PIK3R3-N (Homo sapiens) [3] = molecular target: PIK3R3-N (Homo sapiens) (UniProt Q92569); remark: listed apart in the source
DAPP1 (Homo sapiens) = DAPP1 (Homo sapiens) (UniProt Q9UN19)
FGR (Homo sapiens) [4] = molecular target: FGR (Homo sapiens) (UniProt P09769)
SRC (Homo sapiens) = SRC (Homo sapiens) (UniProt P12931)
BLK (Homo sapiens) [5] = molecular target: BLK (Homo sapiens) (UniProt P51451); remark: listed apart in the source
SOCS5 (Homo sapiens) = SOCS5 (Homo sapiens) (UniProt O75159)
SHC1-PTB (Homo sapiens) = SHC1-PTB (Homo sapiens) (UniProt P29353)
SHC1 (Homo sapiens) = SHC1 (Homo sapiens) (UniProt P29353)
RASA1-NC (Homo sapiens) = RASA1-NC (Homo sapiens) (UniProt P20936)
SH2D3A (Homo sapiens) = SH2D3A (Homo sapiens) (UniProt Q9BRG2)
GRB7 (Homo sapiens) = GRB7 (Homo sapiens) (UniProt Q14451)
ABL1 (Homo sapiens) = ABL1 (Homo sapiens) (UniProt P00519)
FGR (Homo sapiens) [6] = molecular target: FGR (Homo sapiens) (UniProt P09769); remark: listed apart in the source
TEC (Homo sapiens) = TEC (Homo sapiens) (UniProt P42680)
BTK (Homo sapiens) = BTK (Homo sapiens) (UniProt Q06187)
PIK3R3-C (Homo sapiens) = PIK3R3-C (Homo sapiens) (UniProt Q92569)
BCAR3 (Homo sapiens) = BCAR3 (Homo sapiens) (UniProt O75815)
PIK3R1-NC (Homo sapiens) = PIK3R1-NC (Homo sapiens) (UniProt P27986)
PIK3R2-NC (Homo sapiens) = PIK3R2-NC (Homo sapiens) (UniProt O00459)
SLA2 (Homo sapiens) = SLA2 (Homo sapiens) (UniProt Q9H6Q3)
ABL2 (Homo sapiens) = ABL2 (Homo sapiens) (UniProt P42684)
PIK3R1-N (Homo sapiens) = PIK3R1-N (Homo sapiens) (UniProt P27986)
TNS4 (Homo sapiens) = TNS4 (Homo sapiens) (UniProt Q8IZW8)
Sequence of TNS4 (Homo sapiens) (Q8IZW8 444-561): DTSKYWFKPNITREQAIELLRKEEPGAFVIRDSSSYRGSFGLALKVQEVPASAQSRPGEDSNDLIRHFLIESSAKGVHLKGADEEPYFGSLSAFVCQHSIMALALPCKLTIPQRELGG

Sequence of BLK (Homo sapiens) (P51451 119-225): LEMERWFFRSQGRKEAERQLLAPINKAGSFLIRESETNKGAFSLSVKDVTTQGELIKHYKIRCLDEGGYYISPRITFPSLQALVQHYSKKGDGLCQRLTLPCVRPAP
Sequence of SH2D3A (Homo sapiens) (Q9BRG2 10-119): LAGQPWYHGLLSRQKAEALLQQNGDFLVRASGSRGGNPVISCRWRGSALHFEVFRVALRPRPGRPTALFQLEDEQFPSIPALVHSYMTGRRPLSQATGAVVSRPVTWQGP
Sequence of ABL2 (Homo sapiens) (P42684 168-268): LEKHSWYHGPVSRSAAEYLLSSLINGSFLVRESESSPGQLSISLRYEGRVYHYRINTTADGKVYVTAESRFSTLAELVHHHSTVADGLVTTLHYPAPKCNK
Sequence of GRB7 (Homo sapiens) (Q14451 426-532): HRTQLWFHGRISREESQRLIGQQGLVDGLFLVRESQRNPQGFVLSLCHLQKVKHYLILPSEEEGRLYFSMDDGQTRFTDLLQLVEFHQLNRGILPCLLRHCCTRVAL
Sequence of PLCG1-C (Homo sapiens) (P19174 545-761): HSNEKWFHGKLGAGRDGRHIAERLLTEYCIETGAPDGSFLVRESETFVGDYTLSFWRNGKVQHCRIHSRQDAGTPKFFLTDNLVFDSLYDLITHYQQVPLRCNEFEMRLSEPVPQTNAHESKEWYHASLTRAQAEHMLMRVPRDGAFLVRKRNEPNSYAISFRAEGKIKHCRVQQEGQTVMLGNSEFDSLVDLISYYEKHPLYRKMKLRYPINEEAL
Sequence of VAV1 (Homo sapiens) (P15498 666-770): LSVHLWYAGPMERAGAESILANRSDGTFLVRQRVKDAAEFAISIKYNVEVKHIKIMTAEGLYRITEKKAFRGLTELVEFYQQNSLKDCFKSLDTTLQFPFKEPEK
Sequence of VAV3 (Homo sapiens) (Q9UKW4 667-771): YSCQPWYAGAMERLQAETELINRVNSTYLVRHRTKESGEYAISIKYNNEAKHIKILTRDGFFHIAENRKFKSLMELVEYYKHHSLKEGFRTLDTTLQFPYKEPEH
Sequence of RASA1-NC (Homo sapiens) (P20936 176-446): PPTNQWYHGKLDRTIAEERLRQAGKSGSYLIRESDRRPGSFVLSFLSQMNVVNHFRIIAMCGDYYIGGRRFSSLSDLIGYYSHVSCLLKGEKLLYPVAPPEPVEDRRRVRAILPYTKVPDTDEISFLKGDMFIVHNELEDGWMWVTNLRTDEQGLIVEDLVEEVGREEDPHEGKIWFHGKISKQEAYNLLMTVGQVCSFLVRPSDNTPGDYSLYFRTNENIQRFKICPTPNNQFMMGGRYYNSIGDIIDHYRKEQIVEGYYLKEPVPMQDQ
Sequence of DAPP1 (Homo sapiens) (Q9UN19 30-134): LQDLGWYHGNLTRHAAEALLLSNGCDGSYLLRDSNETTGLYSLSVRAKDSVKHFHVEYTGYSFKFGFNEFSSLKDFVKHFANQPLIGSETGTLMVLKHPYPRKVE
Sequence of LYN (Homo sapiens) (P07948 124-231): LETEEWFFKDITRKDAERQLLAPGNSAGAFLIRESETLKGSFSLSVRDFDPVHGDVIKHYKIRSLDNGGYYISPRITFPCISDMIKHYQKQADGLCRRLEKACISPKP
Sequence of VAV2 (Homo sapiens) (P52735 668-772): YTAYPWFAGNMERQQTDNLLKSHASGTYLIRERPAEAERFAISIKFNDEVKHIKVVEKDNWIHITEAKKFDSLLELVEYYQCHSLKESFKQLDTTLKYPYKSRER
Sequence of SHC2-PTB (Homo sapiens) (P98077 482-582): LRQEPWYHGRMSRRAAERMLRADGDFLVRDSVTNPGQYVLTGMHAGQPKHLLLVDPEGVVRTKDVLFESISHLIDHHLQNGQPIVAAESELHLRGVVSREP
Sequence of ABL1 (Homo sapiens) (P00519 122-222): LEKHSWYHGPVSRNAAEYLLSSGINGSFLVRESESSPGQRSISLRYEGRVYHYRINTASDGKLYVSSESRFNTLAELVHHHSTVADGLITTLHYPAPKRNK
Sequence of PIK3R2-NC (Homo sapiens) (O00459 325-721): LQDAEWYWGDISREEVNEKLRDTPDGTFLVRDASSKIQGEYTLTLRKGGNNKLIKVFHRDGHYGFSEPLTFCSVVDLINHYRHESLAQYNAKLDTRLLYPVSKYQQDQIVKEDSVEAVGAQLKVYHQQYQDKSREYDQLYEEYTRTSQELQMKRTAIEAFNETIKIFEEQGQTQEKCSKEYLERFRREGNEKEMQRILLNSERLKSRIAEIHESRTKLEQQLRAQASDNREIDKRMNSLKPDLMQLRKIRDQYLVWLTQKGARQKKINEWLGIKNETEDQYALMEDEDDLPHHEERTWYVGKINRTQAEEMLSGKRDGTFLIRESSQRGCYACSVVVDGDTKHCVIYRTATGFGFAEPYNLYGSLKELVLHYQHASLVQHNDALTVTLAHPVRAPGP
Sequence of TEC (Homo sapiens) (P42680 242-350): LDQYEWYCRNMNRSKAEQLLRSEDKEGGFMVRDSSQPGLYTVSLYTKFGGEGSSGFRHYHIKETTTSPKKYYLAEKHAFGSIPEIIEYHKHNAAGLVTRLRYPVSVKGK
Sequence of SLA2 (Homo sapiens) (Q9H6Q3 89-196): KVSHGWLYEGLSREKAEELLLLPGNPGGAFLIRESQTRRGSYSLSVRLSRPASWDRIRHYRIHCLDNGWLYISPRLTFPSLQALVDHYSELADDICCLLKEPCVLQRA
Sequence of BTK (Homo sapiens) (Q06187 276-382): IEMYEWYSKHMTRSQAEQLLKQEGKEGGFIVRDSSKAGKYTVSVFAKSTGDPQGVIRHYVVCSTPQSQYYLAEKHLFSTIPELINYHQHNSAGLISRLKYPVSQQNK
Sequence of SOCS5 (Homo sapiens) (O75159 376-481): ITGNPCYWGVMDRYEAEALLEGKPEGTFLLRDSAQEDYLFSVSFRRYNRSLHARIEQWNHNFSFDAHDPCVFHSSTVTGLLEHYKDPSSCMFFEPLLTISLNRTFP
Sequence of SHC1-PTB (Homo sapiens) (P29353 483-583): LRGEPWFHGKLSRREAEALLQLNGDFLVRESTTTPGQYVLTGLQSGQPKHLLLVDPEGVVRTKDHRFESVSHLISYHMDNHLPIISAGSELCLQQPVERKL
Sequence of SHC1 (Homo sapiens) (P29353 483-583): as above
Sequence of BCAR3 (Homo sapiens) (O75815 149-258): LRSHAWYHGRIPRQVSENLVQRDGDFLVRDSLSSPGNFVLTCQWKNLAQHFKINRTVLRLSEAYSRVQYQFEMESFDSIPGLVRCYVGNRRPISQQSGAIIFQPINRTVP
Sequence of PIK3R1-NC (Homo sapiens) (P27986 328-723): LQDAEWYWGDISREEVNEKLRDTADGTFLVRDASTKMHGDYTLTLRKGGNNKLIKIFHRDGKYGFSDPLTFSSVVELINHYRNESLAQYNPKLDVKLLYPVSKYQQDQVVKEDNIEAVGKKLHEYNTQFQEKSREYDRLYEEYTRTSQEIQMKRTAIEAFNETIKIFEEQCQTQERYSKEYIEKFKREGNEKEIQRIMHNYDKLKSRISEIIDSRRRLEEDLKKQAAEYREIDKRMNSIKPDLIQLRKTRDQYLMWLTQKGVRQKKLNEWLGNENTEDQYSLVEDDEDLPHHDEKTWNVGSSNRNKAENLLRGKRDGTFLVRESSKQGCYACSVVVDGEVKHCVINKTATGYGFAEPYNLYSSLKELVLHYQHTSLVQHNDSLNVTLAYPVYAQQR
Sequence of PIK3R1-N (Homo sapiens) (P27986 328-723): as above

…pYLIPQQGFd
apparent Kd (screen) (VAV3 (Homo sapiens)): 2000 nM
apparent Kd (screen) (PIK3R3-N (Homo sapiens) [1]): 470 nM
apparent Kd (screen) (BLK (Homo sapiens) [2]): 658 nM
apparent Kd (screen) (PLCG1-C (Homo sapiens)): 2000 nM
apparent Kd (screen) (SHC2-PTB (Homo sapiens)): 664 nM

…pYLVPQQGF
apparent Kd (screen) (VAV2 (Homo sapiens)): 2000 nM
apparent Kd (screen) (VAV1 (Homo sapiens)): 2000 nM
apparent Kd (screen) (LYN (Homo sapiens)): 2000 nM
apparent Kd (screen) (PIK3R3-N (Homo sapiens) [3]): 1930 nM
apparent Kd (screen) (DAPP1 (Homo sapiens)): 2000 nM
apparent Kd (screen) (FGR (Homo sapiens) [4]): 2000 nM
apparent Kd (screen) (SRC (Homo sapiens)): 757 nM
apparent Kd (screen) (BLK (Homo sapiens) [5]): 597 nM

…pYWDQDPPE
apparent Kd (screen) (SOCS5 (Homo sapiens)): 2000 nM
apparent Kd (screen) (SHC1-PTB (Homo sapiens)): 88 nM
apparent Kd (screen) (SHC1 (Homo sapiens)): 2000 nM
apparent Kd (screen) (RASA1-NC (Homo sapiens)): 224 nM
apparent Kd (screen) (SH2D3A (Homo sapiens)): 1600 nM
apparent Kd (screen) (GRB7 (Homo sapiens)): 253 nM
apparent Kd (screen) (ABL1 (Homo sapiens)): 1840 nM
apparent Kd (screen) (FGR (Homo sapiens) [6]): 2000 nM
apparent Kd (screen) (TEC (Homo sapiens)): 1600 nM
apparent Kd (screen) (BTK (Homo sapiens)): 2000 nM
apparent Kd (screen) (PIK3R3-C (Homo sapiens)): 2000 nM
apparent Kd (screen) (BCAR3 (Homo sapiens)): 2000 nM
apparent Kd (screen) (PIK3R1-NC (Homo sapiens)): 1840 nM
apparent Kd (screen) (PIK3R2-NC (Homo sapiens)): 2000 nM

…pYEEMRAFQ
apparent Kd (screen) (SLA2 (Homo sapiens)): 2000 nM
apparent Kd (screen) (ABL2 (Homo sapiens)): 44 nM
apparent Kd (screen) (PIK3R1-N (Homo sapiens)): 210 nM
apparent Kd (screen) (TNS4 (Homo sapiens)): 1950 nM
